Experiments:
[1] = target: PC64M4C054 full-length Env (early FL) (HIV-1 clade A, donor PC64, clone …, strain, N-linked glycans | N-linked glycans); assay: cell-based or functional assay
[2] = target: PC64M18C043 full-length Env (late FL), clade A HIV-1 Env clone no. 43 from the 18 months post-infection … (HIV-1 clade A, donor PC64, clone …, strain, N-linked glycans (N130, N156, N160 and others) | N-linked glycans (N611, N616, N637 and others)); assay: cell-based or functional assay

B1: PCT64-13C Fab (early Fab), PCT64 lineage antibody isolated from month 13 (Fab, V domains shown)
VH: EVQLVESGGGLVKPGGSLRLSCAASGFTFTNAWLDWVRQAPGKGLEWVGRIKSKTDGGTTDHAAPVKGRFTISRDDSKNTVYLQMNSLKIEDTAVYYCTTGVETYDFWSGYDDHYYDYYFKDVWGKGTTVTVSS
VL: EIVLTQSPGTLSLSPGERATLSCRASQSVSNNYLAWYQQKPGQAPRLLIYGASSRATGIPDRFSGSGSGTDFTLTISRLEPEDFAVYYCQQSARSFTFGPGTKVDIK
neutralisation of early M4 virus by the antibody PCT64-13C, IC50 [1]: 0.0229 mg/L

B2: PCT64-35S Fab (late Fab), PCT64 lineage antibody isolated from the month 35 sample (Fab, V domains shown)
VH: EVQLVESGGGLVKPGGSLRLACVGSEFTFSEAWMTWVRQAPGKGLEWVGHMRPTTEGGAKDYAAAVRGRFTIARDDSKSTLYLQMNSLKIEDTGVYYCMTGVERGDFWSDDYSQHYNTYLIDVWGKGTTVTVSS
VL: EIVLTQSPGTLSLSPGDRATLSCRATQSVGGDYFAWYQQRPGQSPRLLIYGTSRRAAGIPDRFSGSGSGTDFTLTIDRLEPEDFAVYYCRQYETSFTFGPGTKVDIK
neutralisation of late M18 virus by the antibody PCT64-35S, IC50 [2]: 9 mg/L

B3: PGT151 Fab (Fab, V domains shown)
VH: RVQLVESGGGVVQPGKSVRLSCVVSDFPFSKYPMYWVRQAPGKGLEWVAAISGDAWHVVYSNSVQGRFLVSRDNVKNTLYLEMNSLKIEDTAVYRCARMFQESGPPRLDRWSGRNYYYYSGMDVWGQGTTVTVSS
VL: DIVMTQTPLSLSVTPGQPASISCKSSESLRQSNGKTSLYWYRQKPGQSPQLLVFEVSNRFSGVSDRFVGSGSGTDFTLRISRVEAEDVGFYYCMQSKDFPLTFGGGTKVDLK
neutralisation of late Env pseudovirus, IC50 [2]: 0.0013 mg/L

From paper PMC6019700 (Cell Reports, 2018)
